Experimental findings from PMC5018465 (Biochimica et biophysica acta, 2016) are described below.

This series deals with the molecule itself. The experiment in a line: SEC-MALS.

B1: αAΔ70–88 deletion mutant of human αA-crystallin (natural protein, UniProt P02489 1-173, looked up)
chain: MDVTIQHPWFKRTLGPFYPSRLFDQFFGEGLFEYDLLPFLSSTISPYYRQSLFRTVLDSGISEVRSDRDVQDDFVEIHGKHNERQDDHGYISREFHRRYRLPSNVDQSALSCSLSADGMLTFCGPKIQTGLDATHAERAIPVSREEKPTSAPSS
For the protein B1, the binding result is “binds”.

B2: αAΔ70–76 deletion mutant of human αA-crystallin (natural protein, UniProt P02489 1-173, looked up)
chain: MDVTIQHPWFKRTLGPFYPSRLFDQFFGEGLFEYDLLPFLSSTISPYYRQSLFRTVLDSGISEVRSDRDVKHFSPEDLTVKVQDDFVEIHGKHNERQDDHGYISREFHRRYRLPSNVDQSALSCSLSADGMLTFCGPKIQTGLDATHAERAIPVSREEKPTSAPSS
For the protein B2, the binding result is “binds”.
